# Results from the DeepSol protein solubility set.
# Experiment: soluble on expression in E. coli; label from the status in PepcDB or PDB records
row,Sequence,soluble on expression in E. coli
1,MSLMSSRVTIFTSCNDAYIYLLREGNSQAFPNAVGSKMVNLNTIPPKNGRDYYIALGLEGSANKLGVGIVKHPLLPKHANSDLSYDCEAEMLSNIRDTYVTPPGEGFLPRDTARHHRNWCIRLIKQALAEADIKSPTLDIDVICFTKGPGMGAPLHSVVIAARTCSLLWDVPLVGVNHCIGHIEMGREITKAQNPVVLYVSGGNTQVIAYSEKRYRIFGETLDIAIGNCLDRFARTLKIPNEPSPGYNIEQLAKKAPHKENLVELPYTVKGMDLSMSGILASIDLLAKDLFKGNKKNKILFDKTTGEQKVTVEDLCYSLQENLFAMLVEITERAMAHVNSNQVLIVGGVGCNVRLQEMMAQMCKDRANGQVHATDNRFCIDNGVMIAQAGLLEYRMGGIVKDFSETVVTQKFRTDEVYAAWRDEGHHHHHH,not soluble
2,MRILVSNDDGIFSPGIKALGLAMRALGEVFVVAPDMEQSAVGHGITVRRPLRFKHTQSAGFGEIPAYRVDGTPADCVVLGVHLLGRPDLVVSGINLGVNLGLDLTHSGTVAAALEGASLGIPSIAFSLDTSGEVLDFQEAARWALAIARAVGERGLPPGVLLNVNFPASRPKGLLVTRLSTHRFEDQVVERLDPEGKPYYWIAGTPAGEEEEGTDLWAVRRGYVSVTPVSLDLTAHGFLEALSGLLEGVAP,soluble
3,EVQLVESGGGLVQPGRSLRLSCAASGFTFDDYAMHWVRQAPGKGLEWVSGISWNSGSIGYADSVKGRFTISRDNAKNSLYLQMNSLRAEDTAVYYCARGRGFHYYYYGMDIWGQGTTVTVSSASTKGPSVFPLAPSSKSTSGGTAALGCLVKDYFPEPVTVSWNSGALTSGVHTFPAVLQSSGLYSLSSVVTVPSSSLGTQTYICNVNHKPSNTKVDKKVEPK,soluble
4,MSEQYKQPNTPEPYWRQSTPLPDFKPLQNDLLVDVVIVGGGITGITTAYLLQKRGKKVVILEADRLFNGTTGHTTAKITAQHGLIYDEFIQHFGEDKAKQYYDAQMEAKTFIKNTVQDLSIDCDFQEHDAYIYTNANRYLAKLEREMRAYEKLQINGSLIDSMPLQVPIKKAIVMKGQAQFHPIAYLMKLVQDFIDRGGLIFEHTVATDVDKGEHRTVLTRDGHKVTCDYVVESSHFPFFDRGFYFSRMYADRSYVLGLKVKEPYPGGMYLSAEDPPRSIRHASYQGEDLWLISGETHKTGQGMDTDYHYEALESFSREMFNVTDISYRWSAQDLVTLDRMPYIGPATSNDPHILVATGFRKWGMTNGTIAAHVITDLIIGQVNAYQKLFAPQRFVADPSLRKFFSYNVDVAKHLIDGKTEKGSRTPESLQKDEGDVVNVNGKRAGGYRDTDGALHLVDTTCTHMGCEVSWNHGDRTWDCPCHGSRFSYDGEVVEGPAKKPLKKIDHTLEHHHHHH,soluble
5,CKLCLGEYPVEQMTTIAQCQCIFCTLCLKQYVELLIKEGLETAISCPDAACPKQGHLQENEIECMVAAEIMQRYKKLQFER,soluble
6,SLKVKAINLYTYKEPFKSPISTPKVKLTHRESLFTEIVTYSGETYYGECNAFLTNWYDKETILTVVNRLRQWIPQVLHKDMTSFDSWLPYLNQMNDAPAARSMVVMAVYQMYNDLHDFEVQYGATVSGLTNSQIETLLETRPKRIKLKWSTSLIKDLETIRLLNFDCDIAIDANESLTKPSFLQLANVNTSDIIYIEEPFKILEDLNDIDMSIFPRIAIDEKALSIEKIQSIIQQYPIQVVVLKPFRLGGIDRMLNAMKILKEKNIRFVVGGMYEFGLSRYFTAMLAKEGSYPGDITPHGYYFSNDIVETSGILKGGMIYFTPPKVKRSLLNKV,soluble
7,SEKADEKTYDLRDPSQLVALFTENENEDFIKISLSKYIESLIQSHNMASYNIVFLYDETRSISRYHSNQIYEAASSATDKKDILLILHSGGGQIEPAYLISKTCKSLTKKKFVVGIPRRAKSAATLISLGADEIHMGLMSELGPIDPQIGGYPALGLSNALNTLAGLACRFPDSADMFAKYLTDNLNLKDLGYFERVSESASQYAERLLAGKKFPAPSTAQSLANHFVNHYKDHGFVIDSDEATNLLGSNIIKQNTAEYLFANELYKFLDFASF,not soluble
8,MTMEQLQTPPVVVEVCHTLDKKQLNAISKQVYETTLEAIERARRDSEVDSDLIYTRVGVRRFLDNCSEAYLDELIAKGLPTGRRLSDRKTCWSKHQLRSWLLENE,not soluble
9,MGLLPTDRWLEEDEGDPLRLCARLAPLFGKMPAREIYSYLRLYGMYRSTRQAERLLPEMKERRLWERLGRLYERQRGIWKGPDVPVFLLPADDENRKLVREFQGKGGVAFADKLFFFLLPDHCDEEIAALVAHEYNHVCRLKQLPNEGEDATLLDAVVMEGLAEHAVAETVGAEQCAGWTKYYTDREMERFWRRYIVPNQHLPVSHPHTSRILYGLGWHPKMGGYAVGYAIVRRCLERGCSLAQLMTMEAKDIAELAGFSGKQQGAS,not soluble
10,MKVRYLTSALLLAMTSGLAAAASVDIRHEYVPDRDGDEHRDRIYVSHRFDNQIGFSVEAKWNYKDGHMGNAGHETGVSYRWKATDNFSLTPGINIDASPSGASVFKYNLTGAYKINDEWDVAARIRHGYKNTDDSRYNQLNLYANRKFEWGKLGVEAEYKDIHGGEGGWKDKGHDQLIDFKGEYTKLESGVIPFFAIAAITHKGDGSEFKDEYVPRFRVGLKYNF,not soluble
11,MGSIWELDFYSRPILDENQKKVWEVVICESPLDIRTKTDSLFRYAQYCPSTEVNSAWLRTAIQEAISKAGKAPIKIRFFRRQMNNMIVKACEDAGIPALPSRRTLALNQWLKQRMEEVYPQEPGYQGVTTPSVRLDSPLPQRLPDALEGQQWVFVSLSAADLAEMPDWEIGFSEAFPLDFVQVSPETRIPGVLIFSPRALPIAGWMSGLELAFLRVDTSQGMRLVLETGATESWILANIKNPTTVQEARGFEEAKQKANGVHFIGVQSNPEAESFAGFWLLQELGVLEHHHHHH,not soluble
12,MAHHHHHHMADRGDARVVHVFVDDLSAVLAEDVHEWLRIIGDIDELKMRYDASRQRSFYWVRFHQSSAARLAVDHLDGERLKNHAIEIHSNVFKKQTAAVATLEGAAGGVQEEKTKLEMNPNLPKNHLMPRDLQMDELLVRAIPEMLETSEQAAEGGELLQRLLELQESYCRAQESLERTTEGIRETDGELTALLRGETTAATDVSGPSSEGFVQGNTPLASARIRNAVPVPLSTCDPAGLLSKLTRHVGPVADYAFSFASNGGSFATVVELFHPDDADFALALLTGRRMVSKSTEKHADAEDALAALVGFGWEAEASVAPLTPPSVPQASFAAHNRVATILRSCRSVA,not soluble
13,DVTNAEKLVYKYTNIAHSANPMYEAPSITDGKIFFNRKFKTPSGKEAACASCHTNNPANVGKNIVTGKEIPPLAPRVNTKRFTDIDKVEDEFTKHCNDILGADCSPSEKANFIAYLLTETKPTK,soluble
14,MSLCELLGMSANVPTDICFSFTGLMQRGGKTGPHRDGWGIAFYEGKGFRTFKDPNPSSQSKIAELVQQYPIKSRAVISHIRQANRGGVNLENTHPFTRELWGQYWTFAHNGQLTGYQNLVTGRHRPVGETDSELAFCWLLNQMEQCYPEGPQDWPEMLRYVAQCCDELRALGVFNMLLSNGEYVMAYCTNHLYWITRRAPFGCAALLDEDVEINFQEETTPNDVVSVIATQPLTGNETWQRMKPGQFAFFHFGERIEDNAHVLMDVGFAPNRPGCQAPSQPLDEGGSHHHHHH,soluble
15,MSQNATVNVDIKLGVNKFHVDEGHPHIILTENPDINEFRKLMKACPAGLYKQDDVGNIHFDPAGCLECGTCRVLCGNTILEQWQYPAGTFGIDFRYG,not soluble
16,MGSDKIHHHHHHMTTSAVSIPMPSIPRRRRSPEDVLAAAPVPGPKKVLLAAPRGYCAGVDRAVIAVEKALEHYGPPVYVRKQIVHNVHVVSSLEEKGAIFVDETDEVPEGALVIFSAHGVSPAVVQSAEDRGLRTIDATCPLVTKVHREAVRFAKDDFDILLIGHDGHEEVEGTAGEAPEHIQIINGPHEVDKVTVRDPEKVIWLSQTTLSVDETMETVRLLKERFPTLQDPPSDDICYATTNRQVAIKKISPQADLVIVVGSANSSNSVRLVEVALEYGAKASYRVDFANEVDEAWFEGVATVGVTSGASVPEVLVKDVLRLLADYGYGTVEEVVTAEEDLLFSLPKELRATLKKSGDVTRALGGRGARA,not soluble
17,MPNPPAKEDTWAFGPIGSPFPDNPVKALGQQNMYVALWYKNGRPMHGRAWNNGGVIECSFPYNKSELTGVKDLGGQIQVLQYKGNHLSLGYWYNWIKYSDRFDKMDKGAEMLRCGDSFPILWSERPGGALLGYADNKTEIARFSHDGKVDEVSGSALANMLIIARELKGGPPYCECEECKSEPPKPIVRVTLNEWADFRCGDPWPTVGTPVRALGRSLDTLPGENPDQYVALWYQSGEPVMGRIWNDGGKIAACFGWGGHEYRQKIGSIQILYELPEAIRGFDYDWKPFPEAAQFGAKEWIPVHVDHHKGNISPAVLIVDGKEILGKADIRNERATIGYGGTEKVLVGPAVHSCMVLCRKAKPGCTID,soluble
18,AWQAAVASNEPFGEAQLAQRIRRYLPEQGQLFVGNSLVVRLIDALAQLPAGYPVYSNRGASGIDGLIATAAGVQRASARPTLAIVGDLSALYDLNSLALLRQASAPLVLIVVNNNGGQIFSMLPTPQDERRQFYLMPQDVDFSHAAVMFGLAYHRPDDWPSLDEALAGAWRRAGATVIELAVNETDG,not soluble
19,MTQAIKRVGVTDVVLRDAHQSLFATRLRIDDMLPIAQQLDQIGYWSLECWGGATFDSCIRFLGEDPWQRLRLLKQAMPNTPLQMLLRGQNLLGYRHYADDVVDTFVERAVKNGMDVFRVFDAMNDVRNMQQALQAVKKMGAHAQGTLCYTTSPVHNLQTWVDVAQQLAELGVDSIALKDMAGILTPYAAEELVSTLKKQVDVELHLHCHSTAGLADMTLLKAIEAGVDRVDTAISSMSGTYGHPATESLVATLQGTGYDTGLDIAKLEQIAAYFRDVRKKYHAFEGMMKGSDARILVAQVPGGMLTNMESQLKQQNALDKLDLVLEEIPRVREELGFLPLVTPTSQIVGTQAVINVVLGERYKTITKETSGVLKGEYGKTPAPVNTELQARVLAGAEAITCRPADLIAAEMPTLQDRVLQQAKEQHITLAENAIDDVLTIALFDQVGWKFLANRHNLEHHHHHH,soluble
20,MTKRIEIKPATAADQAALAEIYLVDRQQDFPWVTDPQLQDFNEDSRGEFVLVAWIDGQRAGFCSLYRLANFIHLLFVAPDFRHLKVGERLLTEMRQYATEPLTLKCVMANENALRFYAQVGFRIVKADADALPPNYTLRDTHTEQYVALVDVMANERKLN,soluble
21,MQGLESLTYYTENYPPLNFAKEDGKPAGIAVDLLLEAAAAVNVTLNLDQIFVQPWPRSYRSALLKQDGVLFSTTRTTHRENLFNWVGPIADIKVVVLARKSSQIKVNDPIELGNYRIGVIRDDIGEQQLLQLEHHHHHH,not soluble
22,GMAQNIYDQPDFFAGYSQLGRSIEGLDGAAEWPALRAMLPEVGGLRIVDLGCGFGWFCRWAHEHGASYVLGLDLSEKMLARARAAGPDTGITYERADLDKLHLPQDSFDLAYSSLALHYVEDVARLFRTVHQALSPGGHFVFSTEHPIYMAPARPGWAIDAEGRRTWPIDRYLVEGPRKTDWLAKGVVKHHRTVGTTLNALIRSGFAIEHVEEFCPTDAQITARPELAEELDRPMFLLVSARR,soluble
23,DESATSYANSAIAIELDGDQYVARIKDPLADHAKYTEAFHAVGLDIDLRLVPASPTAVGKFLSVRWSKSSGAGPARSASGGSLPTLKFTPENCGEPNQAGCELTMRVPADYTGNMSLSLGRRAEPGEEYKNPDWATAPGEMFGGVQLQDGRPVDAMLAEARRRDLTVEFSRIRPDAETGALSFEPLSADQVRGDWTVWHAWQVKAGVIRLLVTPERLPENPFEKGARPPS,not soluble
24,DEYARDTKVEWREWGTAPFEDAAESGKPVLLALTVPWSAECRAMDRGTYGEPRIAANINDGFVPVRVDADRNPRVRERYTMGGFPSTVFLTPEGEVITGATFLGPDGFRGILDSVRESWDAQ,not soluble
